Patent US20050118651A1 (NEURALAB, published 2005)

Target: T1, synthetic Aβ1-42 peptide (aggregated in the ELISAs) (human, UniProt P05067 672-713)
T1 construct: range 672-713; It was coated as aggregated peptide in the ELISAs; also called aggregated Aβ1-42; Aβ (1-42) aggregate
Assay: competitive Aβ 1-42 ELISA; competitor biotinylated m12A11Cγ2a at a fixed concentration

fold of IC50 against murine and chimeric 12A11: ≤ 2 fold (x IC50)
B1: humanized 12A11 version 1 (antibody, V domains shown)
VH: QVQLVESGGGVVQPGRSLRLSCAFSGFSLSTSGMSVGWIRQAPGKGLEWLAHIWWDDDKYYNPSLKSRLTISKDTSKNTVYLQMNSLRAEDTAVYYCARRTTTADYFAYWGQGTTVTVSS
VL: DVVMTQSPLSLPVTPGEPASISCRSSQSIVHSNGNTYLEWYLQKPGQSPQLLIYKVSNRFSGVPDRFSGSGSGTDFTLKISRVEAEDVGVYYCFQSSHVPLTFGQGTKLEIK
notes: Made by transient expression in COS cells; also called h12A11v1; 12A11v1
